# Measured values: PMC6760140
# Numbering of substitutions follows the chain as printed. In names and notes the source's numbering stands.
# B1: 2544 Fab κC:P94T (protein)
# chain 1: EVQLVESGGGLVQPGGSLRLSCVASGFTFSNYNMNWVRQAPGKGLEWLSYISSSSGTIYYADSVKGRFTISRDNAKNSMYLQMNSLRAEDTAVYYCVRVEYYYGSSGYYYDFDSWGQGTLVTVSS
# chain 2: DIVMTQSPLSLPVTPGEPASISCRSSQSLLHNGYNYLDWYLQKPGQSPQLLIYLGSNRASGVPDRFSGSGSGTDFTLKISRVEAEDVGVYYCMQTLQTFTFGQGTRLEIK
# B2: 2544 Fab HC:D100GY (protein)
# chain 1: B1 chain 1 with D111Y
# chain 2: B1 chain 2 with T98P
# B3: 2544 Fab κC:F95P (protein)
# chain 1: B1 chain 1
# chain 2: B1 chain 2 with T98P, F99P
# B4: 2544 Fab κC:T91A (protein)
# chain 1: B1 chain 1
# chain 2: B1 chain 2 with T95A, T98P
# B5: 2544 Fab HC:G55S (protein)
# chain 1: B1 chain 1 with G56S
# chain 2: B1 chain 2 with T98P
# Target: Recombinant His-tagged Pfs25, P13829
# Assay: BLI
# Conditions: chain shown with the change; immobilized Pfs25 and mutant Fab analyte; parent: est. 4.6; read off a plot
row,Binder,Kd [nM]
1,B1,14
2,B2,18
3,B3,22000
4,B4,12
5,B5,14
